# B1: AcrIIA4 (natural protein, Listeria monocytogenes prophage, UniProt A0A247D711 1-87, looked up)
# chain: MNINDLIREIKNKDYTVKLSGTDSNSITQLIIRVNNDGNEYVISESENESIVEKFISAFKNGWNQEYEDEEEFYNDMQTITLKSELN
# Target: Streptococcus pyogenes Cas9 (Streptococcus pyogenes, UniProt Q99ZW2 1-1368)
# Assay: native gel or EMSA
binder,measurement,value
B1,Kd,0.078 µM
